Here are results for two molecules from article PMC2958309 (Journal of Molecular and Cellular Cardiology, 2010).

Where two headings read alike, the source gives them in different places.

Holding throughout (experiment): SPR
The target of assay [1] is T1, wild type sorcin (soluble resistance-related calcium binding protein) ( (human or Chinese hamster …, UniProt P05044 1-198)).
T1 sequence (looked up): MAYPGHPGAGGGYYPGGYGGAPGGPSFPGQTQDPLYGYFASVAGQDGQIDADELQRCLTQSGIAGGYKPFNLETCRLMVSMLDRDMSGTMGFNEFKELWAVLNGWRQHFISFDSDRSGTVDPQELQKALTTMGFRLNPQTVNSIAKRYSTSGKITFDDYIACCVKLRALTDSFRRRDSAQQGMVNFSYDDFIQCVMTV

For assay [2], the target named is T1, wild type sorcin (soluble …). The source holds these as a separate data set.
Assay [3] shares this target. The source holds these as a separate data set.
Assay [4] has as its target T2, sorcin W105G variant ( (human or Chinese hamster …, UniProt P05044 1-198, W105G)).
T2 sequence (looked up): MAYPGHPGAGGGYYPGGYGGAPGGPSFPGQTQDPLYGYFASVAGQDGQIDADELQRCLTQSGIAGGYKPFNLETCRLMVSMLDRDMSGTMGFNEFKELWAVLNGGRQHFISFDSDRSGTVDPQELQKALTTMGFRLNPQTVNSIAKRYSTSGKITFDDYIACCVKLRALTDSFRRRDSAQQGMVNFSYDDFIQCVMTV

By Kd is commonly meant a measure of binding affinity in units of concentration. What is called koff is a measure of how fast the partners let go of each other. What is called kon is a measure of how fast the partners come together.

B1: NCX1 Calcium Binding Domain 2 (CBD2) (domain or fragment, Mus musculus, UniProt P70414 527-712, looked up)
chain: TIFDDDHAGIFTFEEPVTHVSESIGIMEVKVLRTSGARGNVIIPYKTIEGTARGGGEDFEDTCGEPEFQNDEIVKTISVKVIDDEEYEKNKTFFIEIGEPRLVEMSEKKALLLNELGGFTLTGKEMYGQPIFRKVHARDHPIPSTVITISEEYDDKQPLTSKEEEERRIAEMGRPILGEHTKLEVI
As for B1, in assay [1], the equilibrium dissociation constant (Kd) is 3 µM, the off-rate constant (koff) is 0.24 ± 0.1 s⁻¹ and the kon was determined as 80000 M⁻¹ s⁻¹. Also, the off-rate constant (koff) in assay [2] was found to be 0.6 ± 0.2 s⁻¹. Moreover, in assay [3], the dissociation constant Kd is 1 µM, the koff was determined as 0.05 ± 0.03 s⁻¹ and the kon turned out to be 50000 M⁻¹ s⁻¹.

B2: NCX1 Calcium Binding Domain 1 (CBD1) (domain or fragment, Mus musculus, UniProt P70414 397-539, looked up)
chain: MAENDPVSKIFFEQGTYQCLENCGTVALTIMRRGGDLSTTVFVDFRTEDGTANAASDYEFTEGTVIFKPGETQKEIRVGIIDDDIFEEDENFLVHLSNVRVSSDVSEDGILESNHASSIACLGSPSTATITIFDDDHAGIFTF
Consider B2, for which, in assay [1], the Kd worked out at 7 µM, the koff is 0.27 ± 0.1 s⁻¹ and the kon was 40000 M⁻¹ s⁻¹. For the same molecule, the binding result in assay [4] is recorded as “binds”. Moreover, the off-rate constant (koff) in assay [2] worked out at 0.9 ± 0.4 s⁻¹. Also, in assay [3], the equilibrium dissociation constant (Kd) is 1.2 µM, the koff amounted to 0.08 ± 0.1 s⁻¹ and the kon was determined as 70000 M⁻¹ s⁻¹.
